Assays:
[1] = Stability in storage buffer formulations by analytical SEC (Example 11); assay type: physicochemical
Procedure: Although SG-11 protein is very stable at high temperature, forming aggregations at 37° C. in a week could be the problem at the downstream processing stage. Deamidation of asparagine residues found by LC/MS/MS are also a risk factor. In order to improve the manufacturability of a protein comprising SEQ ID NO:3 or variants thereof, the protein depicted as SG-11 (SEQ ID NO:7) was mutated to contain the following 4 substitutions: N53S, N83S, C147V and C151S. This variant with 4 substitutions is designated as SG-11V5, provided herein as SEQ ID NO:19. The stability of purified SG-11 and SG-11V5 was tested in different storage buffer formulations. SG-11V5 (SEQ ID NO:19) has about 98.3% sequence identity to SEQ ID NO:7.
Specifically, purified SG-11 (SEQ ID NO:7) was incubated in pH 5.2 (FIGS. 15A, 15B and 15C), pH 7.0 (FIGS. 15D, 15E and 15F) and pH 8.0 (FIGS. 15G, 15H and 15I). Effect of additives was also tested at the 3 different pH conditions: 150 mM NaCl (FIGS. 15A, 15D and 15G); 150 mM NaCl and 100 mM arginine (FIGS. 15B, 15E and 15H); and 150 mM NaCl and 0.5 M sorbitol (FIGS. 15C, 15F and 15I). Stability was analyzed by analytical SEC. Arrow heads indicate the retention time of the monomeric form.
SG-11V5 (SEQ ID NO:19) was incubated in pH 5.2 (FIGS. 16A, 16B and 16C), pH 7.0 (FIGS. 16D, 16E and 16F) and pH 8.0 (FIGS. 16G, 16H and 16I). Effect of additives was also tested at the 3 different pH conditions: 150 mM NaCl (FIGS. 16A, 16D and 16G); 150 mM NaCl and 100 mM Arg (FIGS. 16B, 16E and 16H); and 150 mM NaCl and 0.5 M sorbitol (FIGS. 16C, 16F and 16I). Stability was analyzed by analytical SEC. Arrow heads indicate the retention time of the monomeric form.

[2] = system: human colonic epithelial cells (HCT8 enterocytes and HT29-MTX goblet cells) co-cultured with U937 monocytes; assay: In vitro trans-epithelial electrical resistance (TEER) co-culture assay, barrier disruption by heat killed E. coli; assay type: cell-based; conditions: Example 12; 1 μg/ml (40 nM), 6 hours pre-incubation; HK E. coli alone 78.6%; FIG. 17
Procedure: Assays were performed as described below in trans-well plates where co-cultures of multiple cell types were performed utilizing a permeable membrane to separate cells. In the apical (top) chamber, human colonic epithelial cells, consisting of a mixture of enterocytes and goblet cells, were cultured until cells obtained tight junction formation and barrier function capacity as assessed by measurement of trans-epithelial electrical resistance (TEER). In the basolateral chamber, monocytes were cultured separately. Epithelial cells were primed with inflammatory cytokines. The assays measured the effect of a therapeutic protein, i.e., SG-11, on epithelial barrier function, muc2 gene expression, and production of cytokines.
Cell culture. The HCT8 human enterocyte cell line (ATCC Cat. No. CCL-244) was maintained in RPMI-1640 medium supplemented with 10% fetal bovine serum, 100 IU/ml penicillin, 100 μg/ml streptomycin, 10 μg/ml gentamicin and 0.25 μg/ml amphotericin (cRPMI). […]
Epithelial cell culture. […] Epithelial cells were trypsinized from culture flasks and viable cells determined by trypan blue counting. […]
Co-culture assay. […] Trans-epithelial electrical resistance (TEER) readings were measured after the IFN-γ treatment and were used as the pre-treatment TEER values. […]

[3] = system: C57BL/6 mice given 2.5% DSS in drinking water; assay: Concurrent (prophylactic) DSS model of inflammatory bowel disease (Example 4, Example 13A); assay type: in vivo, mouse; conditions: for 4KDa-FITC signal in serum / Colon length: vs DSS+vehicle; for Colon length: FIG. 22A
Procedure: Specifically, the mice in Examples 4 and 5 were treated with dextran sodium sulfate (DSS), a chemical known to induce intestinal epithelial damage and thereby reduce intestinal barrier integrity and function. DSS mice are well-accepted models of colitis. In Example 4, mice were treated with SG-11 protein approximately concurrent with (6 hours prior to) administration of DSS. In Example 5, mice were treated with DSS for 6 days prior to treatment with SG-11 protein.
The graphs presented in Example 4 represent data pooled from 3 independent experiments, each using 10 mice (n=30). The SG-11 protein used in these experiments was the mature protein (no signal peptide) without an N-terminal tag and comprising the amino acid sequence of SEQ ID NO:3. For 2 experiments, the SG-11 protein consisted of SEQ ID NO:5; for the third experiment, the SG-11 protein consisted of SEQ ID NO:7.
Eight-week old C57BL/6 mice were housed 5 animals were cage and given food and water ad libitum for 7 days. Following the 7-day acclimation period, treatments were initiated concurrently with addition of 2.5% DSS to the drinking water. […] The mice were treated with 2.5% dextran sodium sulfate (DSS) in their drinking water for 6 days. Treatments were continued with SG-11 or Gly2-GLP2 twice a day (b.i.d.) in the morning and evening (every 8 and 16 hr) with i.p. injections at 50 nmoles/kg. Fresh 2.5% DSS drinking water was prepared every 2 days.
On day six, mice were fasted for four hours and then orally gavaged with 600 mg/kg 4KDa dextran labeled with fluorescein isothiocyanate (FITC) [4KDa-FITC]. One hour after the 4KDa-FITC gavage mice were euthanized, blood was collected and FITC signal was measured in serum. […] The magnitude of 4KDa-FITC dextran translocation observed for SG-11 was similar to the positive control of Gly2-GLP2. Results are shown in FIG. 3, and are presented as mean±SEM. The graph in FIG. 3 represents data pooled from 3 independent experiments (n=30).
SG-11 was also assessed for its effects on the levels of LPS binding protein (LBP) in the blood of the DSS animal with and without SG-11 administration. LPS binding protein (LBP), which has been linked to clinical disease activity in subjects with inflammatory bowel disease, was also measured by ELISA in the serum of mice tested in the DSS model described in Example 4. […] Results are shown in FIG. 4, and are presented as mean±SEM. The graph in FIG. 4 represents data pooled from 3 independent experiments (n=30).
Body weight was measured daily from mice included in the DSS model described in this Example. Percent change from starting weight on day 0 was determined for each mouse. […] Weight loss in mice treated with SG-11 at day 6 was similar to weight loss observed with Gly2-GLP2. The graph in FIG. 5 represents data pooled from two independent experiments (n=20).
Gross pathology observations were made in mice included in the concurrent DSS model performed in this Example. […] No differences in clinical scores were observed between mice given DSS and treated with either Gly2-GLP2 or SG-11. The scoring system used was: (0)=no gross pathology, (1)=streaks of blood visible in feces, (2)=completely bloody fecal pellets, (3) bloody fecal material visible in cecum, (4) bloody fecal material in cecum and loose stool, (5)=rectal bleeding. The graph in FIG. 6 represents data pooled from 3 independent experiments (n=30).
Colon length was measured in mice included in the DSS model described in Example 7. […] The graphs in FIGS. 8A and 8B represent data pooled from 3 independent experiments (n=30). Data are graphed as mean±SEM and are pooled from three independent experiments (n=30). Statistical analysis was performed by a one-way ANOVA followed by a Fisher's LSD multiple comparisons test.
Briefly, in the first DSS mouse model (Example 13A), mice were treated on day zero with test compound intraperitoneally (i.p.) and 6 hours later DSS treatment was initiated. […]

Molecule	Aggregate formation (analytical SEC) ([1]; 100 mM arginine at pH 7.0 (150 mM NaCl), FIG. 15)	Behaviour at pH 5.2 [1]	TEER after HK E. coli (normalized, relative to untreated samples) [2] [%]	4KDa-FITC signal in serum ([3]; Example 13A, 50 nmoles/kg i.p. twice a day, p=0.04, FIG. 18A)	Colon length ([3]; Example 13A)	Aggregation (analytical SEC) ([1]; all conditions tested: pH 5.2, 7.0, 8.0, 150 mM NaCl ± 100 mM arginine or 0.5 M sorbitol, FIG. 16)	Stability compared with SG-11 ([1]; pH 7.0 and pH 8.0)	Small aggregation peak at 1.34 mL (analytical SEC) ([1]; with 100 mM arginine or 0.5 M sorbitol)	Gross pathology score (0-5) ([3]; Example 13, 160 nmoles/kg, dose dependent effect, p<0.002, FIG. 21)	4KDa-FITC signal in serum ([3]; Example 13, FIG. 18B, p=0.21)	LBP in serum (ELISA) ([3]; Example 13A, 158 nmoles/kg i.p. twice a day, p=0.003, FIG. 19A)	Body weight ([3]; Example 13A, 158 nmoles/kg, day 6, FIG. 20A)	Dose dependence of effect on colon length ([3]; prophylactic DSS model, 16, 50 and 158 nmoles/kg)
SG-11 (SEQ ID NO:7): Recombinant SG-11 with N-terminal methionine, 233 amino acids, no N-terminal tag (protein) MLEGEESVVYVGKKGVIASLDVETLDQSYYDETELKSYVDAEVEDYTAEHGKNAVKVESLKVEDGVAKLKMKYKTPEDYTAFNGIELYQGKVVASLAAGYVYDGEFARVEEGKVVGAATKQDIYSEDDLKVAIIRANTDVKVDGEICYVSCQNVKLTGKDSVSIRDGYYLETGSVTASVDVTGQESVGTEQLSGTEQMEMTGEPVNADDTEQTEAAAGDGSFETDVYTFIVYK	greatly suppressed	precipitated	89.5	significantly reduced the 4KDa-FITC signal	significant increase in the colon length	–	–	–	–	–	–	–	–
SG-11V5: SG-11 variant SEQ ID NO:19 comprising N53S, N83S, C147V, C151S with respect to SEQ ID NO:7 (protein) MLEGEESVVYVGKKGVIASLDVETLDQSYYDETELKSYVDAEVEDYTAEHGKSAVKVESLKVEDGVAKLKMKYKTPEDYTAFSGIELYQGKVVASLAAGYVYDGEFARVEEGKVVGAATKQDIYSEDDLKVAIIRANTDVKVDGEIVYVSSQNVKLTGKDSVSIRDGYYLETGSVTASVDVTGQESVGTEQLSGTEQMEMTGEPVNADDTEQTEAAAGDGSFETDVYTFIVYK	–	precipitated	89.1	–	significant increase in the colon length	did not show large amount of aggregation	improved stability	suppressed	significant improvement	also reduced the 4KDa-FITC signal, although the difference was not reach statistical significance	significant reduction in LBP production	significant improvement in body weight	no dose-dependent effect on colon length

Reference: patent US11505583B2, “Proteins for the treatment of epithelial barrier function disorders” (Second Genome, Inc., priority 2018, dated 2022)
